# Reference: IntAct's records for PubMed 9082982
# Biological target: sap18_drome Bin1 (UniProt Q9VEX9)
# Sequence (Q9VEX9 whole entry): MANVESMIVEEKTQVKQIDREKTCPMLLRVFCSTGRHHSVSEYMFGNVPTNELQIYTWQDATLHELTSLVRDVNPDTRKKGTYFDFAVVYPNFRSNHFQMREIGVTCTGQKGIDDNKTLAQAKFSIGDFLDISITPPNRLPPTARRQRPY
# Chain of Cell division control protein 42 homolog (Homo sapiens), P60953 D118A (P60953 whole entry D118A): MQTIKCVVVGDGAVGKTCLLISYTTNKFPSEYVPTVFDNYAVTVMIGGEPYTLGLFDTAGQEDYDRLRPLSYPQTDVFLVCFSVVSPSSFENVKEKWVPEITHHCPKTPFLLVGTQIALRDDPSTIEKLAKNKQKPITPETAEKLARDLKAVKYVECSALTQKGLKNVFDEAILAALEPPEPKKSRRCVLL
# Chain of Cell division control protein 42 homolog (Homo sapiens), P60953 G12V (P60953 whole entry G12V): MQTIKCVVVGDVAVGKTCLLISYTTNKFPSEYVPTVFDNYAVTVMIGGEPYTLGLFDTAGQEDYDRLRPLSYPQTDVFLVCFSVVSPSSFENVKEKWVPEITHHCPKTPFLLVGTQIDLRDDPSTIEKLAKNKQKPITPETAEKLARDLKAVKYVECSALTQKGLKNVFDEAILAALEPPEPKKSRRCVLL
row,effect of a mutation on the interaction,Substance
1,increasing interaction,"Cell division control protein 42 homolog (Homo sapiens), P60953 G12V"
2,disrupting interaction,"Cell division control protein 42 homolog (Homo sapiens), P60953 D118A"
